Assays:
[1] = target: 50S ribosomal subunit of E. coli (E. coli) (UniProt P0A7L0); experiment: stopped-flow Rayleigh light scattering of subunit association; naked 30S (0.25 µM final) mixed with 50S (0.25 µM final) preincubated with ObgE or ObgE-NG (0.5-20 µM in the mix); HEPES polymix buffer pH 7.5, 37°C; Ki from the midpoint of k obs against concentration
[2] = target: 50S ribosomal subunit of E. coli (E. coli) (UniProt P0A7L0); experiment: co-sedimentation; as a1, with 0.5 mM ppGpp
[3] = target: 50S ribosomal subunit of E. coli (E. coli) (UniProt P0A7L0)
[4] = target: 50S ribosomal subunit of E. coli (E. coli) (UniProt P0A7L0); experiment: stopped-flow Rayleigh light scattering of subunit association; 30S-preIC (0.25 µM final; mRNA, fMet-tRNAfMet, IF1, IF2, GTP) mixed with 50S (0.25 µM final) preincubated with ObgE or ObgE-NG; HEPES polymix buffer pH 7.5, 37°C; Ki from the midpoint of k obs against concentration

UniProt P0A7L0, sequence (P0A7L0 whole entry, looked up): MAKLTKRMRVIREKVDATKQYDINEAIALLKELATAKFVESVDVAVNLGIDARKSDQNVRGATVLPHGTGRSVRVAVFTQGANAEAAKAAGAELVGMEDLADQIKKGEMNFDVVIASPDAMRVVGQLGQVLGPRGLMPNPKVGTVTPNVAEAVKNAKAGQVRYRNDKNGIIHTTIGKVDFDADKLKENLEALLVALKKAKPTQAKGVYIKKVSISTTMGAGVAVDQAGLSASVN

Row | Substance | Ki [1] | Ki [4] | further results
1 | 30S ribosomal subunit of E. coli (naked 30S subunit) (complex) | – | – | k obs of subunit association (without ObgE) [1]: 4 s⁻¹
2 | ObgE (Obg protein in Escherichia coli), full-length, His-tagged (from UniProt P42641 1-390) (enzyme) | 2 µM | 0.3 µM | fold occupancy on the 50S subunit against the apo state [2]: > 5 fold; GTP hydrolysis rate of ObgE (MESG assay, phosphate release) with increasing amounts of 50S subunits up to an equal amount; without 50S ∼0.0268 min^−1; stimulated about 120-fold [3]: 3.15 min⁻¹
3 | ObgE-NG (CTD deleted construct of ObgE, residues 1-340) (from UniProt P42641 1-340) (domain or fragment) | 3.7 µM | 1 µM | –
4 | mRNA programmed 30S-preinitiation complex (30S-preIC) (from UniProt P69222 1-72; P0A705 1-890) | – | – | k obs of subunit association (without ObgE) [4]: 20 s⁻¹

From article PMC4028186
